Test system: MS2 coat protein
Assay: apparent KD of MS2 coat protein; designed switch direction (-1 OFF switch, 1 ON switch): -1; higher = weaker reporter binding
Procedure, shortened: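 On Illumina chips, designed RNA switches with common flanks were made by stalled E. coli RNA polymerase. Titrations with SNAP-549-labelled MS2 coat protein, doubling from 0.7 or 1.5 nM to 3 µM, were done with no input, with 200 uM small-molecule ligand, or with an oligonucleotide input. Apparent KD is the median per design over clusters, from curve fits of normalised cluster fluorescence.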

[1] = Eterna round: R95, input ligand: FMN 200 uM
[2] = Eterna round: R95, input ligand: microRNA oligo, concentration not stated
[3] = Eterna round: R95, input ligand: none
[4] = input ligand: microRNA oligo, concentration not stated

Row | Sequence | apparent KD of MS2 coat protein [1] | apparent KD of MS2 coat protein [2] | apparent KD of MS2 coat protein [3] | apparent KD of MS2 coat protein (input ligand: FMN 200 uM) | apparent KD of MS2 coat protein (input ligand: none) | apparent KD of MS2 coat protein [4]
1 | AGGUAACAUGAGGAUCACCCAUGUCAGGAUAUCAGUAAGAUGAGGAUAGAAUAGAGUAUGAGAAGGGACUAUAU [Excluse me! 22 - Jieux - Exclusion 1] (puzzle: Exclusion 1) | 34 nM | 38.5 nM | 47.6 nM | – | – | –
2 | AGGUAGUCAGGAUAUUAAGAGUAGCGGGAUAACGCUACGAGUGAGAAGGGACAUGAGGAUCACCCAUGUUUUUU [JR_Ex4_Sub072] (Eterna round: R97, puzzle: Exclusion 4) | – | – | – | 22 nM | 22.5 nM | –
3 | AGGUCACAUGAGGAUCACCCAUGUGAGGAUAUAGACUCAAGAGCUUCGGCUCUCAAGUUUAGAAGGCGCAAUGA [EX1 #52] (Eterna round: R97, puzzle: Exclusion 1) | – | – | – | 31.7 nM | 31.2 nM | –
4 | AGGUGUAGAGGAUAUCGACUUUCUCACAUGAGGAUCACCCAUGUCCUGGUCACCCAGGACCGAGAAGGCUACACCA [Omei Ex5 D27] (Eterna round: R97, puzzle: Exclusion 5) | – | – | – | 204 nM | 27.6 nM | –
5 | AGGUGUAGAGGAUAUCUCUUCUCUCACAUGAGGAUCACCCAUGUCCUGGGUACCUAGGAGAGAGAAGGCUACACCA [Omei Ex5 D11] (Eterna round: R97, puzzle: Exclusion 5) | – | – | – | 1370 nM | 587 nM | –
6 | AGUAACAGAGGAUAUACUGUUUUAUGUGUUUGUUAUUUUGAACAUGAGGAUCACCCAUGUAGAAGGCUGAAUAA [JMF 92] (puzzle: Exclusion 2) | – | 20 nM | – | – | – | –
7 | AGUAACUAUCACGAAAGUGAUAGUUACAAACAGGUGAAAACAUGAGGAUCACCCAUGUCCUCAUUUGCUCGUCUUAU [Sensor 3 - 8] (puzzle: Sensor v3, turn-off variant 2) | 213 nM | 64.5 nM | 240 nM | – | – | –
8 | AGUACUAACACGAAAGUGUUAGUACAAUAAGCUUGUGUAACAUGAGGAUCACCCAUGUCCUCAUAAGCUCGUCUUAU [salish99_TOv2_r3_043] (puzzle: Sensor v3, turn-off variant 2) | 50.6 nM | 38.3 nM | 51.6 nM | – | – | –
9 | AGUACUAACACGAAAGUGUUGGUACAAUAAGCUUGUGAAACAUGAGGAUCACCCAUGUCCUCAUAAGCUCGUCUUAU [salish99_TOv2_r3_036] (puzzle: Sensor v3, turn-off variant 2) | 17.9 nM | 599 nM | 16.7 nM | – | – | –
10 | AGUACUAACACGAGAGUGUUAGUACAAUAAGCUUGUGUUACAUGAGGAUCACCCAUGUCCUCAUAAGCUCGUCUUAA [Mat - Sensor v3 - Turn-off var 2 - D58] (puzzle: Sensor v3, turn-off variant 2) | 41.3 nM | 727 nM | 42.5 nM | – | – | –
11 | AGUACUAACACGGAAGUGUUAGUACAAUAAGCUUGUGUUACAUGAGGAUCACCCAUGUCCUCAUAAGCUCGUCUUAU [Mat - Sensor v3 - Turn-off var 2 - D61] (puzzle: Sensor v3, turn-off variant 2) | 113 nM | 12.4 nM | 112 nM | – | – | –
12 | AGUACUAACACGGAAGUGUUAGUACUAUAAGCUUGUGUUACAUGAGGAUCACCCAUGUCCUCAUAAGCUCGUCUUAU [Mat - Sensor v3 - Turn-off var 2 - D69] (puzzle: Sensor v3, turn-off variant 2) | 94.5 nM | 87 nM | 98.2 nM | – | – | –
13 | AGUACUAUCACGAAAGUGAUAGUACAAUGAGCUUUUGAAACAUGAGGAUCACCCAUGUCCUCGUAAGCUCGUCUUAA [Mat - Sensor v2 - var 2 - Mod - D179] (Eterna round: R96, puzzle: Sensor v2, turn-off variant 2) | – | – | – | 25.7 nM | 28.6 nM | 438 nM
14 | AGUACUAUCACGAAAGUGAUAGUACGAGGAGCAAGUGGAACAUGAGGAUCACCCAUGUCCUCAUCUGCUCGUCUUAU [salish99-s2-v2-x008] (Eterna round: R96, puzzle: Sensor v2, turn-off variant 2) | – | – | – | 13.5 nM | 16.3 nM | 172 nM
15 | AGUACUAUGCGAGCUGACUUGCGUAGUGCAGCAGGUGGAACAUGAGGAUCACCCAUGUCCUCAUUUGCUCGUCUUAU [Mat - Sensor v3 - Turn-off var 2 - D4] (puzzle: Sensor v3, turn-off variant 2) | 30.2 nM | 120 nM | 26.8 nM | – | – | –
16 | AGUAGAUCAGGAUAUACGUGAAAGGUCAAAGUGUCCAAUAUACAUGAGGAUCACCCAUGUAGAAGGGAUCUACA [Ex2 Design 116: Not so Super Stable 3] (Eterna round: R96, puzzle: Exclusion 2) | – | – | – | 168 nM | 27.4 nM | 22.1 nM
17 | AGUAGGUCUACCUUGGUGGAUCUGCAUUUAUGCAAGUGUACAUGAGGAUCACCCAUGUCCUCAUUUGCUCGUCUUAU [JL turnoff v2 99.26] (puzzle: Sensor v3, turn-off variant 2) | 95 nM | 432 nM | 103 nM | – | – | –
18 | AGUAGUUGUUUCCGUUCUUACAUGAGGAUCACCCAUGUUUCUUGUCGUGCACGCGAUGCUCGUCAGACUACCAGAUG [salish99_TOv1_r3_058] (puzzle: Sensor v3, turn-off variant 1) | 52.5 nM | 69.9 nM | 61.9 nM | – | – | –
19 | AGUAUGUCAGGAUAUCUCGGGUAGCCCACAAGGACUACCGAAGAGAAGGGACAUGAGGAUCACCCAUGUACCAU [EX4 B.24] (Eterna round: R97, puzzle: Exclusion 4) | – | – | – | 19.9 nM | 21.4 nM | –
20 | AGUCAGGCGGUAGGAUAUCCAAAUCGAGUGACCCUCUCAUAACAUGAGGAUCACCCAUGUCGGUGGGAGAAGGGCCGUAAGGCA [Mat - Exclusion NG 2 - Mod of JL - D64] (Eterna round: R96, puzzle: Exclusion NG 2) | – | – | – | 33 nM | 30.9 nM | 16.4 nM
21 | AGUCGGCGAGGAUAUACAUGAGGAUCACCCAUGUGAUAUAGUGCACGCGUACGUGUACGUAGAAGGCGCUGACA [Mat - Exclusion 3 - Mod of JL D93] (puzzle: Exclusion 3) | – | 11.5 nM | – | – | – | –
22 | AGUGCAUGAGGAUAUGCAAAUCGAAAGACGCAAGGGCAAUCACAUGAGGAUCACCCAUGUAGAAGGCGUCGCAC [Eternabot (Original) Solution 17] (Eterna round: R97, puzzle: Exclusion 2) | – | – | – | 30.7 nM | 31.9 nM | –
23 | AGUGCGUAUGUGAGGAUAUGCUGGUCCUUGGAUCAGCAGAAGGCACAUGAGGAUCACCCAUGUGGUGUCGUACU [salish99_Bmod_Ex4_005] (puzzle: Brourd's mod of Exclusion 4) | – | 190 nM | – | – | – | –
24 | AGUGCGUAUGUGAGGAUAUGCUGGUCCUUGGAUCGGCAGAAGGCACAUGAGGAUCACCCAUGUGGUGUCGUACG [salish99_Bmod_ex4_077] (puzzle: Brourd's mod of Exclusion 4) | 203 nM | 58.6 nM | 89.2 nM | – | – | –
25 | AGUGUGUGGCAGGAUAUUCUAAUCUUGAGGAGGGAAGAAGGGUCUACAUGAGGAUCACCCAUGUAAGCGGUUGA [Ex6 #41] (Eterna round: R97, puzzle: Exclusion 6) | – | – | – | 142 nM | 33.6 nM | –
26 | AGUGUGUGGCAGGAUAUUCUGUUGAUUAGGACAGAAGAAGGGUCUACAUGAGGAUCACCCAUGUAAGCGGUUGA [Ex6 #36] (Eterna round: R97, puzzle: Exclusion 6) | – | – | – | 275 nM | 268 nM | –
27 | AGUUCUAACACGAAAGUGUUAGUACAAUAAGCUUGUGAAACAUGAGGAUCACCCAUGUCCUCAUAAGCUCGUCUUAU [salish99_TOv2_r3_013] (puzzle: Sensor v3, turn-off variant 2) | 15.4 nM | 667 nM | 14.7 nM | – | – | –
28 | AGUUGGCGAGGAUAUACAUGAGGAUCACCCAUGUAUGAGAUACGAGUAAGGUAAAUAUGUAGAAGGCGCUGACA [JR_Ex3_Sub077] (Eterna round: R97, puzzle: Exclusion 3) | – | – | – | 52 nM | 16.8 nM | –
29 | AGUUGGCGAGGAUAUACAUGAGGAUCACCCAUGUGAAAUAGAAGAGUGAGGAAGAAAAGUAGAAGGCGCUGACA [Mat - Exclusion 3 - Mod of Salish D40] (puzzle: Exclusion 3) | 134 nM | 69 nM | 107 nM | – | – | –
